# Measurements as given in doi:10.1101/699967 (bioRxiv, 2019).
# Biological target: HaloTag-Brd4-BD1_BD2-NanoLuc (aa 44-460) (human, UniProt O60885 44-460, HaloTag NanoBRET 618 fluorescent ligand on the HaloTag (experimental samples))
# Assay: FRET or BRET
binder,measurement,value
"SGRGKGGKGLGKGGAKRHR (acetyl-lysine at 5, 8 and 16) [H4(1-19)K5/8/16-triacetyl histone peptide]",EC50,7.5 ± 3.5 µM
